{"source": "paper PMC3669278", "about": "“An Iron 13S-Lipoxygenase with an α-Linolenic Acid Specific Hydroperoxidase Activity from Fusarium oxysporum” (PLoS ONE, 2013)", "key": {"[1]": {"molecular_target": "T1, FoxLOX (Fusarium oxysporum, UniProt A0A0J9UTC2)", "T1 construct": "gene FOXG_04807; full-length ORF, 744 residues, in pET28a with N-terminal hexa-His tag (removal not mentioned); E. coli Bl21star; non-heme iron; iron-ligand residues His-408, His-413, His-595, Asp-599, Ile-744", "T1 sequence (A0A0J9UTC2 1-744)": "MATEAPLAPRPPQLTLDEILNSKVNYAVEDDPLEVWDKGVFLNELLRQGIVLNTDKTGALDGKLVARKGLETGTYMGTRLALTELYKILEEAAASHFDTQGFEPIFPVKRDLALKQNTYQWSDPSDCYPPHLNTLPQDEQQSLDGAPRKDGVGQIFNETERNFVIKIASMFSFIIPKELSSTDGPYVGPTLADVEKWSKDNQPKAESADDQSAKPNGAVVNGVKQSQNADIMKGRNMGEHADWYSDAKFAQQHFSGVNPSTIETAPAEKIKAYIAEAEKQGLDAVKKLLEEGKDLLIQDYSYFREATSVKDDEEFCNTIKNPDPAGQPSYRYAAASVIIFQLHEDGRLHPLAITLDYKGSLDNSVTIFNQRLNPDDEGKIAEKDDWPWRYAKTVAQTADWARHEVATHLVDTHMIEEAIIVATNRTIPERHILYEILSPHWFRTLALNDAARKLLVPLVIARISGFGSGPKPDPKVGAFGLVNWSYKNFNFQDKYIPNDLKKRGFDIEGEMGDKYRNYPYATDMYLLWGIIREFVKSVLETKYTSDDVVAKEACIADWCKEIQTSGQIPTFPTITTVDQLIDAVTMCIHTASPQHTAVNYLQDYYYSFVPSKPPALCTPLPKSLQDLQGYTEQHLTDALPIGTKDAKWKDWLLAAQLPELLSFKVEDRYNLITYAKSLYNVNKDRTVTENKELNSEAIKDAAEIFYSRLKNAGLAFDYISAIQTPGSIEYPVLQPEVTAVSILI", "assay": "initial rate of conjugated diene formation at […] nm, Michaelis-Menten fit", "format": "biochemical", "conditions": "50 mM Tris/HCl pH 8.0, room temperature, air-equilibrated, fatty acid sodium salt"}, "[2]": {"molecular_target": "FoxLOX (Fusarium oxysporum lipoxygenase, iron 13S-lipoxygenase) (Fusarium oxysporum f. sp. lycopersici strain 4287)", "assay": "SEC; S200pg 26/60 column; 50 mM Tris/HCl pH 8.0, 10% glycerol, 125 mM NaCl; affinity-purified FoxLOX; apparent mass about 173 kDa against about 80 kDa by SDS-PAGE and 83.5 kDa theoretical"}, "[3]": {"substrate": "CCCCC/C=C\\C/C=C\\C/C=C\\C/C=C\\CCCC(=O)O", "assay": "purified protein", "format": "biochemical, Fusarium oxysporum", "conditions": "50 mM Tris/HCl pH 8.0, room temperature, air-equilibrated, fatty acid sodium salt"}}, "data": [{"molecule": "CC/C=C\\C/C=C\\C/C=C\\CCCCCCCC(=O)O", "note": "[18∶3(n-3)]", "values": [{"measurement": "Km", "setting": "[1]", "value": "31.7 ± 3.79", "unit": "µM"}]}, {"molecule": "CCCCC/C=C\\C/C=C\\CCCCCCCC(=O)O", "note": "[18∶2(n-6)]", "values": [{"measurement": "Km", "setting": "[1]", "value": "6.89 ± 0.79", "unit": "µM"}]}, {"molecule": "CCCCC/C=C\\C/C=C\\C/C=C\\CCCCC(=O)O", "note": "[18∶3(n-6)]", "values": [{"measurement": "Km", "setting": "[1]", "value": "34.8 ± 5.38", "unit": "µM"}]}, {"molecule": "FoxLOX (Fusarium oxysporum lipoxygenase, iron 13S-lipoxygenase) (enzyme)", "values": [{"measurement": "stoichiometry N", "setting": "[2]", "value": 2}]}, {"molecule": "FoxLOX (Fusarium oxysporum f. sp. lycopersici 4287) (protein, full-length ORF, 744 residues, in pET28a with N-terminal hexa-His tag (removal not mentioned); E. coli Bl21star; non-heme iron; iron-ligand residues His-408, His-413, His-595, Asp-599, Ile-744) MATEAPLAPRPPQLTLDEILNSKVNYAVEDDPLEVWDKGVFLNELLRQGIVLNTDKTGALDGKLVARKGLETGTYMGTRLALTELYKILEEAAASHFDTQGFEPIFPVKRDLALKQNTYQWSDPSDCYPPHLNTLPQDEQQSLDGAPRKDGVGQIFNETERNFVIKIASMFSFIIPKELSSTDGPYVGPTLADVEKWSKDNQPKAESADDQSAKPNGAVVNGVKQSQNADIMKGRNMGEHADWYSDAKFAQQHFSGVNPSTIETAPAEKIKAYIAEAEKQGLDAVKKLLEEGKDLLIQDYSYFREATSVKDDEEFCNTIKNPDPAGQPSYRYAAASVIIFQLHEDGRLHPLAITLDYKGSLDNSVTIFNQRLNPDDEGKIAEKDDWPWRYAKTVAQTADWARHEVATHLVDTHMIEEAIIVATNRTIPERHILYEILSPHWFRTLALNDAARKLLVPLVIARISGFGSGPKPDPKVGAFGLVNWSYKNFNFQDKYIPNDLKKRGFDIEGEMGDKYRNYPYATDMYLLWGIIREFVKSVLETKYTSDDVVAKEACIADWCKEIQTSGQIPTFPTITTVDQLIDAVTMCIHTASPQHTAVNYLQDYYYSFVPSKPPALCTPLPKSLQDLQGYTEQHLTDALPIGTKDAKWKDWLLAAQLPELLSFKVEDRYNLITYAKSLYNVNKDRTVTENKELNSEAIKDAAEIFYSRLKNAGLAFDYISAIQTPGSIEYPVLQPEVTAVSILI", "values": [{"measurement": "Km", "setting": "[3]", "value": "3.37 ± 0.55", "unit": "µM"}, {"measurement": "kcat", "setting": "[3]", "value": "1.71 ± 0.0632", "unit": "s⁻¹"}, {"measurement": "kcat/Km", "setting": "[3]", "value": 507000, "unit": "M⁻¹ s⁻¹"}]}]}
